Experimental data: the supplement of paper PMC10567573

B1: DCAF4 (parent)
chain: DSHILLCLMGLAETPGCATLLPAS

Variants of: B1
Assay: protein stability index of a GFP-peptide fusion (GPS, HEK-293T) (PSI 1-6); higher = more stable
Conditions: c terminus: a fixed tail appended
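Further: lentivirally expressed fusions sorted by FACS into six bins by GFP to DsRed ratio, PSI derived from sequencing read proportions per bin multiplied by bin number.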

Row | Variant | protein stability index
1 | DSHILLCLMGLAQTPGCATLLPAS | 2.36
2 | DSHILLCLMGLAHTPGCATLLPAS | 2.77
3 | DSHILLCLMGLASTPGCATLLPAS | 3.26
4 | DSHILLCLMGLAPTPGCATLLPAS | 2
5 | DSHILLCLMGLAGTPGCATLLPAS | 1.88
6 | DSHILLCLMGLAKTPGCATLLPAS | 2.59
7 | DSHILLCLMGLAATPGCATLLPAS | 3.31
8 | DSHILLCLMGLADTPGCATLLPAS | 3.06
9 | DSHILLCLMGLACTPGCATLLPAS | 2.88
10 | DSHILLCLMGLATTPGCATLLPAS | 2.89
11 | DSHILLCLMGLAITPGCATLLPAS | 4.29
12 | DSHILLCLMGLALTPGCATLLPAS | 2.42
13 | DSHILLCLMGLAVTPGCATLLPAS | 4.1
14 | DSHILLCLMGLANTPGCATLLPAS | 2.83
15 | DSHILLCLMGLAFTPGCATLLPAS | 2.49
16 | DSHILLCLMGLAMTPGCATLLPAS | 3.96
17 | DSLILLCLMGLAETPGCATLLPAS | 3.05
18 | DSPILLCLMGLAETPGCATLLPAS | 2.65
19 | DSTILLCLMGLAETPGCATLLPAS | 3.73
20 | DSIILLCLMGLAETPGCATLLPAS | 3.85
21 | DSVILLCLMGLAETPGCATLLPAS | 2.04
22 | DSWILLCLMGLAETPGCATLLPAS | 3.17
23 | DSAILLCLMGLAETPGCATLLPAS | 2.76
24 | DSDILLCLMGLAETPGCATLLPAS | 2.49

Row | Variant | protein stability index
25 | DSKILLCLMGLAETPGCATLLPAS | 1.81
26 | DSCILLCLMGLAETPGCATLLPAS | 1.61
27 | DSQILLCLMGLAETPGCATLLPAS | 2.02
28 | DSYILLCLMGLAETPGCATLLPAS | 2.67
29 | DSEILLCLMGLAETPGCATLLPAS | 2.27
30 | DSNILLCLMGLAETPGCATLLPAS | 3.2
31 | DSGILLCLMGLAETPGCATLLPAS | 3.24
32 | DSRILLCLMGLAETPGCATLLPAS | 3.45
33 | DWHILLCLMGLAETPGCATLLPAS | 2.68
34 | DSHILLCLMGLNETPGCATLLPAS | 1.69
35 | DSHILLCLMGLDETPGCATLLPAS | 2.02
36 | DSHILLCLMGLIETPGCATLLPAS | 2.11
37 | DSHILLCLMGLKETPGCATLLPAS | 1.92
38 | DSHILLCLMGLCETPGCATLLPAS | 2.96
39 | DSHILLCLMGLEETPGCATLLPAS | 2.25
40 | DSHILLCLMGLSETPGCATLLPAS | 2.37
41 | DSHILLCLMGLQETPGCATLLPAS | 2.74
42 | DSHILLCLMGLLETPGCATLLPAS | 2.76
43 | DSHILLCLMGLYETPGCATLLPAS | 4
44 | DSHILLCLMGLMETPGCATLLPAS | 2.66
45 | DSHILLCLMGLPETPGCATLLPAS | 3.88
46 | DSHILLCLMGLFETPGCATLLPAS | 3.3
47 | DSHILLCLMGLHETPGCATLLPAS | 2.59
48 | DSHILLCLMGLWETPGCATLLPAS | 4.01

Row | Variant | protein stability index
49 | DSHILLCLMGLRETPGCATLLPAS | 2.39
50 | DSHIRLCLMGLAETPGCATLLPAS | 1.44
51 | DSHIKLCLMGLAETPGCATLLPAS | 2.12
52 | DSHISLCLMGLAETPGCATLLPAS | 1.78
53 | DSHINLCLMGLAETPGCATLLPAS | 1.73
54 | DSHIPLCLMGLAETPGCATLLPAS | 3.06
55 | DSHIDLCLMGLAETPGCATLLPAS | 2.09
56 | DSHIALCLMGLAETPGCATLLPAS | 1.77
57 | DSHIVLCLMGLAETPGCATLLPAS | 2.28
58 | DSHIELCLMGLAETPGCATLLPAS | 1.78
59 | DSHIHLCLMGLAETPGCATLLPAS | 1.8
60 | DSHIWLCLMGLAETPGCATLLPAS | 2.79
61 | DSHITLCLMGLAETPGCATLLPAS | 1.65
62 | DSHICLCLMGLAETPGCATLLPAS | 2.07
63 | DSHIFLCLMGLAETPGCATLLPAS | 1.59
64 | DSHIYLCLMGLAETPGCATLLPAS | 2.77
65 | DSHIQLCLMGLAETPGCATLLPAS | 2.27
66 | DSHIGLCLMGLAETPGCATLLPAS | 2.01
67 | DSHILQCLMGLAETPGCATLLPAS | 1.81
68 | DSHILYCLMGLAETPGCATLLPAS | 2.86
69 | DSHILTCLMGLAETPGCATLLPAS | 1.5
70 | DSHILDCLMGLAETPGCATLLPAS | 2.22
71 | DSHILPCLMGLAETPGCATLLPAS | 2.74
72 | DSHILKCLMGLAETPGCATLLPAS | 2.19

Row | Variant | protein stability index
73 | DSHILCCLMGLAETPGCATLLPAS | 3.71
74 | DSHILACLMGLAETPGCATLLPAS | 1.87
75 | DSHILVCLMGLAETPGCATLLPAS | 1.37
76 | DSHILGCLMGLAETPGCATLLPAS | 1.87
77 | DSHILFCLMGLAETPGCATLLPAS | 2.68
78 | DSHILNCLMGLAETPGCATLLPAS | 1.75
79 | DSHILMCLMGLAETPGCATLLPAS | 2.02
80 | DSHILSCLMGLAETPGCATLLPAS | 1.53
81 | DSHILRCLMGLAETPGCATLLPAS | 2.98
82 | DSHILICLMGLAETPGCATLLPAS | 2.56
83 | DSHILECLMGLAETPGCATLLPAS | 2.01
84 | DSHILWCLMGLAETPGCATLLPAS | 4.4
85 | DSHILHCLMGLAETPGCATLLPAS | 1.9
86 | DSHSLLCLMGLAETPGCATLLPAS | 1.82
87 | DSHRLLCLMGLAETPGCATLLPAS | 1.77
88 | DSHYLLCLMGLAETPGCATLLPAS | 2.33
89 | DSHDLLCLMGLAETPGCATLLPAS | 1.92
90 | DSHWLLCLMGLAETPGCATLLPAS | 2.97
91 | DSHQLLCLMGLAETPGCATLLPAS | 2.13
92 | DSHCLLCLMGLAETPGCATLLPAS | 2.15
93 | DSHFLLCLMGLAETPGCATLLPAS | 2.53
94 | DSHGLLCLMGLAETPGCATLLPAS | 2.11
95 | DSHALLCLMGLAETPGCATLLPAS | 1.67
96 | DSHLLLCLMGLAETPGCATLLPAS | 2.96

Row | Variant | protein stability index
97 | DSHMLLCLMGLAETPGCATLLPAS | 1.86
98 | DSHELLCLMGLAETPGCATLLPAS | 1.99
99 | DSHHLLCLMGLAETPGCATLLPAS | 1.64
100 | DSHNLLCLMGLAETPGCATLLPAS | 1.93
101 | DSHVLLCLMGLAETPGCATLLPAS | 3.46
102 | DSHTLLCLMGLAETPGCATLLPAS | 1.93
103 | DSHPLLCLMGLAETPGCATLLPAS | 1.86
104 | DSHKLLCLMGLAETPGCATLLPAS | 2.2
105 | DSHILLCLMGVAETPGCATLLPAS | 2.65
106 | DSHILLCLMGQAETPGCATLLPAS | 1.66
107 | DSHILLCLMGRAETPGCATLLPAS | 2.05
108 | DSHILLCLMGNAETPGCATLLPAS | 1.27
109 | DSHILLCLMGEAETPGCATLLPAS | 1.3
110 | DSHILLCLMGTAETPGCATLLPAS | 2.7
111 | DSHILLCLMGYAETPGCATLLPAS | 3.55
112 | DSHILLCLMGGAETPGCATLLPAS | 1.6
113 | DSHILLCLMGIAETPGCATLLPAS | 1.97
114 | DSHILLCLMGSAETPGCATLLPAS | 1.4
115 | DSHILLCLMGKAETPGCATLLPAS | 1.71
116 | DSHILLCLMGMAETPGCATLLPAS | 2.42
117 | DSHILLCLMGWAETPGCATLLPAS | 1.8
118 | DSHILLCLMGHAETPGCATLLPAS | 2.36
119 | DSHILLCLMGFAETPGCATLLPAS | 2.98
120 | DSHILLCLMGDAETPGCATLLPAS | 1.66

Row | Variant | protein stability index
121 | DSHILLCLMGAAETPGCATLLPAS | 2.08
122 | DSHILLCLMGCAETPGCATLLPAS | 2.76
123 | DSHILLCLMGPAETPGCATLLPAS | 2.59
124 | DSHILLCLEGLAETPGCATLLPAS | 2.02
125 | DSHILLCLLGLAETPGCATLLPAS | 4.92
126 | DSHILLCLVGLAETPGCATLLPAS | 2.83
127 | DSHILLCLWGLAETPGCATLLPAS | 4.64
128 | DSHILLCLSGLAETPGCATLLPAS | 1.67
129 | DSHILLCLDGLAETPGCATLLPAS | 1.92
130 | DSHILLCLAGLAETPGCATLLPAS | 2.83
131 | DSHILLCLPGLAETPGCATLLPAS | 2.12
132 | DSHILLCLCGLAETPGCATLLPAS | 1.71
133 | DSHILLCLGGLAETPGCATLLPAS | 1.7
134 | DSHILLCLRGLAETPGCATLLPAS | 1.82
135 | DSHILLCLNGLAETPGCATLLPAS | 1.6
136 | DSHILLCLQGLAETPGCATLLPAS | 2.26
137 | DSHILLCLYGLAETPGCATLLPAS | 3.06
138 | DSHILLCLIGLAETPGCATLLPAS | 2.6
139 | DSHILLCLKGLAETPGCATLLPAS | 1.42
140 | DSHILLCLTGLAETPGCATLLPAS | 1.98
141 | DSHILLCLHGLAETPGCATLLPAS | 2.14
142 | DSHILLCPMGLAETPGCATLLPAS | 2.5
143 | DSHILLCEMGLAETPGCATLLPAS | 2.36
144 | DSHILLCKMGLAETPGCATLLPAS | 2.02

Row | Variant | protein stability index
145 | DSHILLCWMGLAETPGCATLLPAS | 2.07
146 | DSHILLCQMGLAETPGCATLLPAS | 1.95
147 | DSHILLCDMGLAETPGCATLLPAS | 3.14
148 | DSHILLCCMGLAETPGCATLLPAS | 2.39
149 | DSHILLCSMGLAETPGCATLLPAS | 1.69
150 | DSHILLCYMGLAETPGCATLLPAS | 3.55
151 | DSHILLCTMGLAETPGCATLLPAS | 1.97
152 | DSHILLCAMGLAETPGCATLLPAS | 1.96
153 | DSHILLCRMGLAETPGCATLLPAS | 2.62
154 | DSHILLCGMGLAETPGCATLLPAS | 1.93
155 | DSHILLCHMGLAETPGCATLLPAS | 1.51
156 | DSHILLCMMGLAETPGCATLLPAS | 3.25
157 | DSHILLCNMGLAETPGCATLLPAS | 2.58
158 | DSHILLCLMYLAETPGCATLLPAS | 2.37
159 | DSHILLCLMLLAETPGCATLLPAS | 2.56
160 | DSHILLCLMFLAETPGCATLLPAS | 2.99
161 | DSHILLCLMSLAETPGCATLLPAS | 3.06
162 | DSHILLCLMILAETPGCATLLPAS | 3.16
163 | DSHILLCLMMLAETPGCATLLPAS | 2.95
164 | DSHILLCLMHLAETPGCATLLPAS | 3.23
165 | DSHILLCLMDLAETPGCATLLPAS | 2.89
166 | DSHILLCLMCLAETPGCATLLPAS | 3.17
167 | DSHILLCLMALAETPGCATLLPAS | 1.84
168 | DSHILLCLMELAETPGCATLLPAS | 1.79

Row | Variant | protein stability index
169 | DSHILLCLMKLAETPGCATLLPAS | 3.89
170 | DSHILLCLMTLAETPGCATLLPAS | 3.51
171 | DSHILLCLMQLAETPGCATLLPAS | 2.23
172 | DSHILLDLMGLAETPGCATLLPAS | 1.78
173 | DSHILLELMGLAETPGCATLLPAS | 1.7
174 | DSHILLALMGLAETPGCATLLPAS | 2.67
175 | DSHILLSLMGLAETPGCATLLPAS | 1.55
176 | DSHILLMLMGLAETPGCATLLPAS | 2.11
177 | DSHILLWLMGLAETPGCATLLPAS | 3.65
178 | DSHILLRLMGLAETPGCATLLPAS | 2.1
179 | DSHILLPLMGLAETPGCATLLPAS | 2.47
180 | DSHILLQLMGLAETPGCATLLPAS | 1.8
181 | DSHILLFLMGLAETPGCATLLPAS | 2.76
182 | DSHILLGLMGLAETPGCATLLPAS | 2.32
183 | DSHILLVLMGLAETPGCATLLPAS | 2.19
184 | DSHILLYLMGLAETPGCATLLPAS | 3
185 | DSHILLNLMGLAETPGCATLLPAS | 2.08
186 | DSHILLILMGLAETPGCATLLPAS | 2.51
187 | DSHILLHLMGLAETPGCATLLPAS | 2.9
188 | DSHILLKLMGLAETPGCATLLPAS | 2.14
